Target: MTBR-tau354 (human) (UniProt P10636)
Experiment: target engagement in human CSF, ex vivo; multiple dose 3000 mg Q4W, E2814 CSF concentrations 200-400 ng/mL; bound/(free+bound) proxy peptide

B1: antibody E2814 (antibody, human IgG1, kappa, V domains shown)
VH: EVQLLESGGGLVQPGGSLRLSCAASGYTFTTYWITWVRQAPGKGLEWVSDIYPGSSISNYNEKFKSRFTISVDNSKNTLYLQMNSLRAEDTAVYYCAREDGYDAWFAYWGQGTLVTVSS
VL: DIQMTQSPSSLSASVGDRVTITCRSSQSILHSNGNTYLEWYQQKPGKAPKLLISKVSNRFSGVPSRFSGSGSGTDFTLTISSLQPEDFATYYCFQGSHVPFTFGQGTKLEIKR
target engagement (E2814-bound MTBR-tau as percent of total free plus bound): 70%

Source: US20260159575A1
